Publication PMC11128890 (Frontiers in Cell and Developmental Biology, 2024)

B1: recombinant soluble integrin αvβ3 [not stated] / VEGF165 heparin-binding domain (HBD), wild type [human] (parent complex)
chain 1: FNLDVDSPAEYSGPEGSYFGFAVDFFVPSASSRMFLLVGAPKANTTQPGIVEGGQVLKCDWSSTRRCQPIEFDATGNRDYAKDDPLEFKSHQWFGASVRSKQDKILACAPLYHWRTEMKQEREPVGTCFLQDGTKTVEYAPCRSQDIDADGQGFCQGGFSIDFTKADRVLLGGPGSFYWQGQLISDQVAEIVSKYDPNVYSIKYNNQLATRTAQAIFDDSYLGYSVAVGDFNGDGIDDFVSGVPRAARTLGMVYIYDGKNMSSLYNFTGEQMAAYFGFSVAATDINGDDYADVFIGAPLFMDRGSDGKLQEVGQVSVSLQRASGDFQTTKLNGFEVFARFGSAIAPLGDLDQDGFNDIAIAAPYGGEDKKGIVYIFNGRSTGLNAVPSQILEGQWAARSMPPSFGYSMKGATDIDKNGYPDLIVGAFGVDRAILYRARPVITVNAGLEVYPSILNQDNKTCSLPGTALKVSCFNVRFCLKADGKGVLPRKLNFQVELLLDKLKQKGAIRRALFLYSRSPSHSKNMTISRGGLMQCEELIAYLRDESEFRDKLTPITIFMEYRLDYRTAADTTGLQPILNQFTPANISRQAHILLDCGEDNVCKPKLEVSVDSDQKKIYIGDDNPLTLIVKAQNQGEGAYEAELIVSIPLQADFIGVVRNNEALARLSCAFKTENQTRQVVCDLGNPMKAGTQLLAGLRFSVHQQSEMDTSVKFDLQIQSSNLFDKVSPVVSHKVDLAVLAAVEIRGVSSPDHVFLPIPNWEHKENPETEEDVGPVVQHIYELRNNGPSSFSKAMLHLQWPYKYNNNTLLYILHYDIDGPMNCTSDMEINPLRIKISSLQTTEKNDTVAGQGERDHLITKRDLALSEGDIHTLGCGVAQCLKIVCQVGRLDRGKSAILYVKSLLWTETFMNKENQNHSYSLKSSASFNVIEFPYKNLPIEDITNSTLVTTNVTWGIQP
chain 2: GPNICTTRGVSSCQQCLAVSPMCAWCSDEALPLGSPRCDLKENLLKDNCAPESIEFPVSEARVLEDRPLSDKGSGDSSQVTQVSPQRIALRLRPDDSKNFSIQVRQVEDYPVDIYYLMDLSYSMKDDLWSIQNLGTKLATQMRKLTSNLRIGFGAFVDKPVSPYMYISPPEALENPCYDMKTTCLPMFGYKHVLTLTDQVTRFNEEVKKQSVSRNRDAPEGGFDAIMQATVCDEKIGWRNDASHLLVFTTDAKTHIALDGRLAGIVQPNDGQCHVGSDNHYSASTTMDYPSLGLMTEKLSQKNINLIFAVTENVVNLYQNYSELIPGTTVGVLSMDSSNVLQLIVDAYGKIRSKVELEVRDLPEELSLSFNATCLNNEVIPGLKSCMGLKIGDTVSFSIEAKVRGCPQEKEKSFTIKPVGFKDSLIVQVTFDCDCACQAQAEPNSHRCNNGNGTFECGVCRCGPGWLGSQCECSEEDYRPSQQDECSPREGQPVCSQRGECLCGQCVCHSSDFGKITGKYCECDDFSCVRYKGEMCSGHGQCSCGDCLCDSDWTGYYCNCTTRTDTCMSSNGLLCSGRGKCECGSCVCIQPGSYGDTCEKCPTCPDACTFKKECVECKKFDRGALHDENTCNRYCRDEIESVKELKDTGKDAVNCTYKNEDDCVVRFQYYEDSSGKSILYVVEEPECPKGPD
chain 3: PCGPCSERRKHLFVQDPQTCKCSCKNTDSRCKARQLELNERTCRCDKPRR

Variants of: B1
Assay: ELISA-type binding assay; HBD coated at 2.5 µg/ml; n=3; read off a plot

response | Variant
~0.02 OD450 | chain 3 R8A, chain 3 R9A, chain 3 K10A, chain 3 K25A, chain 3 R30A, chain 3 R34A
~0.25 OD450 | chain 3 R8A, chain 3 R9A, chain 3 K10A
~0.3 OD450 | chain 3 K25A, chain 3 R30A, chain 3 R34A

Variants of: B1
Assay: ELISA-type binding assay; HBD coated at 5 µg/ml (highest point of the curve); read off a plot

response | Variant
~0.11 OD450 | chain 3 R8A, chain 3 R9A, chain 3 K10A, chain 3 K25A, chain 3 R30A, chain 3 R34A
~0.78 OD450 | chain 3 R8A, chain 3 R9A, chain 3 K10A
~1.1 OD450 | chain 3 K25A, chain 3 R30A, chain 3 R34A
